Target: the molecule itself
Assay: SEC; refolded gp12 after Ni-NTA on Hiload Superdex 200; decamer peak at 54.6 ml, monomer peak at 73.6 ml; pooled decamer fractions run again

B1: bacteriophage Sf6 DNA-injection protein gp12 (natural protein, UniProt Q716G3 1-431, looked up)
chain: MATWQGSNGGLLAGIGGVNSNAPSVNDIGNTLQLIRQNNDIERSGANNVGLTALQGLSGIAGVFQQEKQARRQKEFQQAYANAYASGDRGALRQLATQYPDQIESVRKGMGFIDEDQRNSIGTLAAGARLAASSPEAMQSWLQNNANELARVGVDPNNVAQMYQQNPSGFGEFVDHLGMAALGPIDYFNVQDKMAGREIDRGRLAETIRSNKAGEALTVRGQDIQIRGQNISAQNAALSREIQRAELQEKALDRQIARESNQLKLEELKQKQADVRQKADIARADRQAAAQGAVDTFSTALDSLNEIEQSPGLSKAVGIRSAFPTVPGSDAANFEARLDTFKAQTFLPMVQSLKGMGALSDAEGKKLSDAVGALSPKMSEKAFRDSIGKIRNQLESKLSTVKKQFDYQEPVQNTPVQQPTTGSNFSSLWGD
notes: gp12 (product of gene 12) of bacteriophage Sf6, 431 residues, 46.5 kDa; ortholog of phage P22 gp20; The same preparation gave a monomer peak and a decamer peak on SEC; the assembled form has 10 copies of the chain; also called Sf6 gp12; gp12 monomer
stoichiometry N: 10
